In patent US5985836A, “Alpha-1 proteinase inhibitor binding peptides” (Bayer Corporation, priority 1998, dated 1999):
Ends that are not written are not given here.

What was measured:
Immunoglobulin G (IgG) = experiment: Purification from Effluent II+III, IgG mass balance; type: binding, human; details: 1 ml Eff. II+III, 4° C.
Procedure: (§1) Sequences 1-11 and 15 were assayed with Effluent II+III (Eff. II+III). Eff. II+III is a process intermediate in the Cohn plasma fractionation process. The feed stream contains 20% (by volume) ethanol, 20-25 mg/ml hSA and approximately 1 mg/ml AlPI. The stream also contains other proteins including anti-thrombin III (AT3), immunoglobin G (IgG), immunoglobin A (IgA), apolipoprotein alpha-1 (Apo A-1), transferrin (Trf), haptoglobin (Hpt), and alpha-1 acid glycoprotein (AAG) at concentrations ranging from 0.1-1 mg/ml.
(§2) The columns were assayed using the same technique as the hSA+AlPI experiments, allowing for a 10 minute residence time followed by a constant flow rate of 865 μl/min with step elutions of 1M NaCl, 3M NaCl, and 2% acetic acid. All experiments were conducted at 4° C. The mass balances for the injection of 1 ml Eff. […] The AlPI was enriched from 3% of the total protein in the feed to upwards of 50% in the acid eluate.

[1] = molecular target: T1, apolipoprotein alpha-1 (Apo A-1) (Homo sapiens, UniProt P02647); experiment: Purification from Effluent II+III, Apo A-1 mass balance; type: binding; details: 1 ml Eff. II+III, 4° C.
T1 construct: Eff; II+III is a process intermediate in the Cohn plasma fractionation process; tissue Bayer Corporation (Clayton, N.C.); host or cells: plasma fraction: Cohn Effluent II+III
T1 sequence (P02647 19-267): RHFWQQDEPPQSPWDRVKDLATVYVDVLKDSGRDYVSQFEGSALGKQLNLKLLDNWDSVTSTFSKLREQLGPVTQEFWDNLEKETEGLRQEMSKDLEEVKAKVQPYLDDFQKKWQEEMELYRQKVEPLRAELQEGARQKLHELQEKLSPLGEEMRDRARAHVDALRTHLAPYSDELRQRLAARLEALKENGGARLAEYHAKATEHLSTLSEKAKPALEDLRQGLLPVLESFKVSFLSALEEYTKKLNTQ
Procedure: as §1, §2

A1PI [2] = molecular target: T2, A1PI (Homo sapiens, UniProt P01009); experiment: Purification of A1PI from Effluent II+III on peptide column, A1PI mass balance; type: binding; details: 1 ml Eff. II+III, 4° C.; for Mass Protein per Eluate Fraction, 1M NaCl / Mass Protein per Eluate Fraction, 2% Acetic Acid / Mass Protein per Eluate Fraction, Flow: * as in Tables 4, 5 (below detection limit)
T2 construct: Human plasma is currently the only approved source of therapeutic AlPI
T2 sequence (P01009 25-418): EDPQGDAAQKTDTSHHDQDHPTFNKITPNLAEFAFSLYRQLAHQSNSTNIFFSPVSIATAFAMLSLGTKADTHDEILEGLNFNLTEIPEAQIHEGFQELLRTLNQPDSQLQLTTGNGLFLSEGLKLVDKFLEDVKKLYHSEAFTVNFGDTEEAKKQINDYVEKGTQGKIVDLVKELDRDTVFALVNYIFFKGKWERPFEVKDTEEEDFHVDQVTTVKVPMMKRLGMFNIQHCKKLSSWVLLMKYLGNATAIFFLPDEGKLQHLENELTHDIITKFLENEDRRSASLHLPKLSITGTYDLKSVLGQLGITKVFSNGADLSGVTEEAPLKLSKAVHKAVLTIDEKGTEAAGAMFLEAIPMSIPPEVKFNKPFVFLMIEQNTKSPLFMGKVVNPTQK
Procedure: as §1, §2

A1PI [3] = molecular target: T2, A1PI; experiment: A1PI binding on peptide-resin column, injection of 1 mg A1PI in equilibration buffer; details: for Percent A1PI Eluted by Fraction Based on Absorbance at 280 nm, 1M NaCl / Percent A1PI Eluted by Fraction Based on Absorbance at 280 nm, 2% Acetic Acid / Percent A1PI Eluted by Fraction Based on Absorbance at 280 nm, Flowthrough / Percent A1PI Eluted by Fraction, 1M NaCl / Percent A1PI Eluted by Fraction, 2% Acetic Acid / Percent A1PI Eluted by Fraction, Flowthrough: 1 mg A1PI in equilibration buffer; for Percent A1PI Eluted by Fraction, 1M NaCl / Percent A1PI Eluted by Fraction, 2% Acetic Acid / Percent A1PI Eluted by Fraction, Flowthrough: 20° C.
Outline: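 Percent of total eluted A1PI per fraction (flowthrough, NaCl steps, 2% acetic acid) determined by A280 integration or immunonephelometry. Columns of peptide-derivatized A-Totda-Toyopearl resin (0.1 mmole/g) received 1 mg A1PI at 4 °C or 20 °C, flow 865 or 523 μl/min.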

Immunoglobulin A (IgA) = experiment: Purification from Effluent II+III, IgA mass balance; type: binding, human; details: 1 ml Eff. II+III, 4° C.; for Mass Protein per Eluate Fraction, 1M NaCl / Mass Protein per Eluate Fraction, 2% Acetic Acid / Mass Protein per Eluate Fraction, Flow: * as in Tables 4, 5 (below detection limit)
Procedure: as §1, §2

A1PI [4] = molecular target: T2, A1PI; experiment: A1PI purification from 5 mg hSA + 1 mg A1PI on peptide column, A1PI mass balance; type: binding; details: A1PI, 5 mg hSA + 1 mg A1PI; for Percent Eluted by Fraction, 1M NaCl / Percent Eluted by Fraction, 2% Ac. Acid / Percent Eluted by Fraction, 3M NaCl / Percent Eluted by Fraction, Flow: relative to total eluted
Procedure: Confirmatory binding assays were performed in a column chromatographic format on a microbore HPLC using individual peptide sequences synthesized directly onto the Toyopearl 650 M Chelate resin which had been modified with Totda followed by an alanine residue (A-Totda-Toyopearl), at a final substitution density of 0.1 mmole/g resin. The resin was packed into 0.4×5 cm columns (Thomson, Springfield, Va.) and tested on the Michrom HPLC system (Michrom BioResources, Auburn, Calif.). The elution program for all trials utilized the following method. The column was pre-equilibrated with equilibration buffer (as above). 1 ml of sample was injected and allowed sufficient time to flowthrough the column using equilibration buffer. The column was then washed with step elutions of 1M NaCl and 3M NaCl in equilibration buffer. The column was exposed to equilibration buffer with 0.1M NaCl. Any remaining protein was eluted with elution buffer (2% by volume glacial acetic acid in water).
A Gilson FC204 fraction collector at the HPLC outlet collected individual eluates for further analysis. Fractions collected from the 2% acetic acid eluates were neutralized with 2M Tris, pH 10.5 to bring the pH to neutrality. The protein samples were reconstituted in equilibration buffer unless otherwise stated. The samples were analyzed by the integration of the absorbance at 280 nm or by immunonephelometry. The specific method of determination is presented for each figure.
Columns were assayed with a mixture of 5 mg human serum albumin (hSA)+1 mg AlPI at 4° C. (Table 4, Seq. ID 1-11, 15, 17) and 20° C. (Table 5, Seq. ID 1-10, 13, 15, 17). The chromatography method was modified to provide for a 10 minute residence time of sample in the column by decreasing the flow to 17 μl/min (10 cm/hr) upon injection. Following the incubation, the flow was set at 865 μl/min (413 cm/hr) for the step elutions of 1M NaCl, 3M NaCl, and 2% acetic acid. The mass balances presented are based upon immunonephelometry. The Percent Eluted value is protein-specific and based on the amount of the protein eluted in a […]

[5] = * as in Tables 4, 5 (below detection limit)
[6] = Table 11, * Below detection limit
[7] = Trp position mutations, 1 mg A1PI, 4° C.
[8] = 20° C., * Below detection limit

QYHFWY
Percent Eluted by Fraction, 1M NaCl (Immunoglobulin G (IgG)): 10%
Percent Eluted by Fraction, 2% Acetic Acid (Immunoglobulin G (IgG)): 0%
Percent Eluted by Fraction, 3M NaCl (Immunoglobulin G (IgG)): 0%
Percent Eluted by Fraction, Flow (Immunoglobulin G (IgG)): 90%
Mass Protein per Eluate Fraction, 1M NaCl (Immunoglobulin G (IgG); [5]): 0.02 mg
Mass Protein per Eluate Fraction, Flow (Immunoglobulin G (IgG); [5]): 0.21 mg
Percent Eluted by Fraction, 1M NaCl [1]: 0%
Percent Eluted by Fraction, 2% Acetic Acid [1]: 0%
Percent Eluted by Fraction, 3M NaCl [1]: 0%
Percent Eluted by Fraction, Flow [1]: 0%
Percent Eluted by Fraction, 1M NaCl (A1PI [2]; A1PI): 6%
Percent Eluted by Fraction, 2% Acetic Acid (A1PI [2]; A1PI): 75%
Percent Eluted by Fraction, 3M NaCl (A1PI [2]; A1PI): 0%
Percent Eluted by Fraction, Flow (A1PI [2]; A1PI): 20%
Mass Protein per Eluate Fraction, 1M NaCl (A1PI [2]; A1PI): 0.06 mg
Mass Protein per Eluate Fraction, 2% Acetic Acid (A1PI [2]; A1PI): 0.80 mg
Mass Protein per Eluate Fraction, Flow (A1PI [2]; A1PI): 0.21 mg
Percent A1PI Eluted by Fraction Based on Absorbance at 280 nm, 1M NaCl (A1PI [3]; 4° C.): 74%
Percent A1PI Eluted by Fraction Based on Absorbance at 280 nm, 2% Acetic Acid (A1PI [3]; 4° C.): 26%
Percent A1PI Eluted by Fraction Based on Absorbance at 280 nm, Flowthrough (A1PI [3]; 4° C.): 0%
Percent A1PI Eluted by Fraction, 1M NaCl (A1PI [3]): 0%
Percent A1PI Eluted by Fraction, 2% Acetic Acid (A1PI [3]): 4%
Percent A1PI Eluted by Fraction, Flowthrough (A1PI [3]): 96%
Percent Eluted by Fraction, 1M NaCl (Immunoglobulin A (IgA)): 31%
Percent Eluted by Fraction, 2% Acetic Acid (Immunoglobulin A (IgA)): 38%
Percent Eluted by Fraction, 3M NaCl (Immunoglobulin A (IgA)): 0%
Percent Eluted by Fraction, Flow (Immunoglobulin A (IgA)): 31%
Mass Protein per Eluate Fraction, 1M NaCl (Immunoglobulin A (IgA)): 0.11 mg
Mass Protein per Eluate Fraction, 2% Acetic Acid (Immunoglobulin A (IgA)): 0.13 mg
Mass Protein per Eluate Fraction, Flow (Immunoglobulin A (IgA)): 0.11 mg
Mass Protein per Eluate Fraction, 1M NaCl (A1PI [4]; 4° C., * Below detection limit): 0.35 mg
Mass Protein per Eluate Fraction, 2% Ac. Acid (A1PI [4]; 4° C., * Below detection limit): 0.35 mg
Mass Protein per Eluate Fraction, Flow (A1PI [4]; 4° C., * Below detection limit): 0.06 mg
Percent Eluted by Fraction, 1M NaCl (A1PI [4]; 4° C.): 46%
Percent Eluted by Fraction, 2% Ac. Acid (A1PI [4]; 4° C.): 46%
Percent Eluted by Fraction, 3M NaCl (A1PI [4]; 4° C.): 0%
Percent Eluted by Fraction, Flow (A1PI [4]; 4° C.): 7%

V I V L V R: VIWLVR with Trp at position 3 replaced by Val (VIVLVR)
Mass A1PI per Eluate Fraction, 1M NaCl (A1PI [2]; [6]): 0.04 mg
Mass A1PI per Eluate Fraction, 2% Acetic Acid (A1PI [2]; [6]): 0.50 mg
Mass A1PI per Eluate Fraction, Flowthrough (A1PI [2]; [6]): 0.31 mg
Percent Eluted by Fraction, 1M NaCl (A1PI [2]; Table 11, A1PI): 4%
Percent Eluted by Fraction, 2% Acetic Acid (A1PI [2]; Table 11, A1PI): 59%
Percent Eluted by Fraction, Flowthrough (A1PI [2]; Table 11, A1PI): 37%
% of Total A1PI Eluted by Fraction (Based on Absorbance at 280 nm), 1M NaCl (A1PI [3]; [7]): 5%
% of Total A1PI Eluted by Fraction (Based on Absorbance at 280 nm), 2% Acetic Acid (A1PI [3]; [7]): 95%
% of Total A1PI Eluted by Fraction (Based on Absorbance at 280 nm), Flowthrough (A1PI [3]; [7]): 0%

YKFRFW
Percent Eluted by Fraction, 1M NaCl [1]: 0%
Percent Eluted by Fraction, 2% Acetic Acid [1]: 100%
Percent Eluted by Fraction, 3M NaCl [1]: 0%
Percent Eluted by Fraction, Flow [1]: 0%
Mass Protein per Eluate Fraction, 2% Acetic Acid [1, 5]: 0.31 mg
Percent Eluted by Fraction, 1M NaCl (A1PI [2]; A1PI): 5%
Percent Eluted by Fraction, 2% Acetic Acid (A1PI [2]; A1PI): 81%
Percent Eluted by Fraction, 3M NaCl (A1PI [2]; A1PI): 0%
Percent Eluted by Fraction, Flow (A1PI [2]; A1PI): 14%
Mass Protein per Eluate Fraction, 1M NaCl (A1PI [2]; A1PI): 0.06 mg
Mass Protein per Eluate Fraction, 2% Acetic Acid (A1PI [2]; A1PI): 0.92 mg
Mass Protein per Eluate Fraction, Flow (A1PI [2]; A1PI): 0.16 mg
Percent A1PI Eluted by Fraction Based on Absorbance at 280 nm, 1M NaCl (A1PI [3]; 4° C.): 64%
Percent A1PI Eluted by Fraction Based on Absorbance at 280 nm, 2% Acetic Acid (A1PI [3]; 4° C.): 36%
Percent A1PI Eluted by Fraction Based on Absorbance at 280 nm, Flowthrough (A1PI [3]; 4° C.): 0%
Percent A1PI Eluted by Fraction, 1M NaCl (A1PI [3]): 75%
Percent A1PI Eluted by Fraction, 2% Acetic Acid (A1PI [3]): 25%
Percent A1PI Eluted by Fraction, Flowthrough (A1PI [3]): 0%
Percent Eluted by Fraction, 1M NaCl (Immunoglobulin A (IgA)): 33%
Percent Eluted by Fraction, 2% Acetic Acid (Immunoglobulin A (IgA)): 30%
Percent Eluted by Fraction, 3M NaCl (Immunoglobulin A (IgA)): 0%
Percent Eluted by Fraction, Flow (Immunoglobulin A (IgA)): 37%
Mass Protein per Eluate Fraction, 1M NaCl (Immunoglobulin A (IgA)): 0.11 mg
Mass Protein per Eluate Fraction, 2% Acetic Acid (Immunoglobulin A (IgA)): 0.10 mg
Mass Protein per Eluate Fraction, Flow (Immunoglobulin A (IgA)): 0.13 mg
Mass Protein per Eluate Fraction, 1M NaCl (A1PI [4]; 4° C., * Below detection limit): 0.28 mg
Mass Protein per Eluate Fraction, 2% Ac. Acid (A1PI [4]; 4° C., * Below detection limit): 0.46 mg
Mass Protein per Eluate Fraction, 3M NaCl (A1PI [4]; 4° C., * Below detection limit): 0.04 mg
Percent Eluted by Fraction, 1M NaCl (A1PI [4]; 4° C.): 36%
Percent Eluted by Fraction, 2% Ac. Acid (A1PI [4]; 4° C.): 60%
Percent Eluted by Fraction, 3M NaCl (A1PI [4]; 4° C.): 5%
Percent Eluted by Fraction, Flow (A1PI [4]; 4° C.): 0%
Mass Protein per Eluate Fraction, 1M NaCl (A1PI [4]; [8]): 0.16 mg
Mass Protein per Eluate Fraction, 2% Ac. Acid (A1PI [4]; [8]): 0.30 mg
Mass Protein per Eluate Fraction, Flow (A1PI [4]; [8]): 0.41 mg
Percent Eluted by Fraction, 1M NaCl (A1PI [4]; 20° C.): 18%
Percent Eluted by Fraction, 2% Ac. Acid (A1PI [4]; 20° C.): 34%
Percent Eluted by Fraction, 3M NaCl (A1PI [4]; 20° C.): 0%
Percent Eluted by Fraction, Flow (A1PI [4]; 20° C.): 48%
